Experimental data reported in IntAct's records for PubMed 31515488.

B1: Protein boule-like (Homo sapiens), Q8N9W6 (parent)
chain: MQTDSLSPSPNPVSPVPLNNPTSAPRYGTVIPNRIFVGGIDFKTNESDLRKFFSQYGSVKEVKIVNDRAGVSKGYGFVTFETQEDAQKILQEAEKLNYKDKKLNIGPAIRKQQVGIPRSSIMPAAGTMYLTTSTGYPYTYHNGVAYFHTPEVTSVPPPWPSRSVCSSPVMVAQPIYQQPAYHYQATTQYLPGQWQWSVPQPSASSAPFLYLQPSEVIYQPVEIAQDGGCVPPPLSLMETSVPEPYSDHGVQATYHQVYAPSAITMPAPVMQPEPIKTVWSIHY
partner: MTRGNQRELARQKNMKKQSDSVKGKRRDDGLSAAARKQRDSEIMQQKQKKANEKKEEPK
B2: Keratin, type II cytoskeletal 79 (Homo sapiens), Q5XKE5 (parent)
chain: MRSSVSRQTYSTKGGFSSNSASGGSGSQARTSFSSVTVSRSSGSGGGAHCGPGTGGFGSRSLYNLGGHKSISVSVAGGALLGRALGGFGFGSRAFMGQGAGRQTFGPACPPGGIQEVTVNQSLLTPLHVEIDPEIQRVRTQEREQIKTLNNKFASFIDKVRFLEQQNKVLETKWALLQEQGQNLGVTRNNLEPLFEAYLGSMRSTLDRLQSERGRLDSELRNVQDLVEDFKNKYEDEINKHTAAENEFVVLKKDVDAAYMGRMDLHGKVGTLTQEIDFLQQLYEMELSQVQTHVSNTNVVLSMDNNRNLDLDSIIAEVKAQYELIAQRSRAEAEAWYQTKYEELQVTAGKHGDNLRDTKNEIAELTRTIQRLQGEADAAKKQCQQLQTAIAEAEQRGELALKDAQKKLGDLDVALHQAKEDLTRLLRDYQELMNVKLALDVEIATYRKLLESEESRMSGECPSAVSISVTGNSTTVCGGGAASFGGGISLGGSGGATKGGFSTNVGYSTVKGGPVSAGTSILRKTTTVKTSSQRY
partner: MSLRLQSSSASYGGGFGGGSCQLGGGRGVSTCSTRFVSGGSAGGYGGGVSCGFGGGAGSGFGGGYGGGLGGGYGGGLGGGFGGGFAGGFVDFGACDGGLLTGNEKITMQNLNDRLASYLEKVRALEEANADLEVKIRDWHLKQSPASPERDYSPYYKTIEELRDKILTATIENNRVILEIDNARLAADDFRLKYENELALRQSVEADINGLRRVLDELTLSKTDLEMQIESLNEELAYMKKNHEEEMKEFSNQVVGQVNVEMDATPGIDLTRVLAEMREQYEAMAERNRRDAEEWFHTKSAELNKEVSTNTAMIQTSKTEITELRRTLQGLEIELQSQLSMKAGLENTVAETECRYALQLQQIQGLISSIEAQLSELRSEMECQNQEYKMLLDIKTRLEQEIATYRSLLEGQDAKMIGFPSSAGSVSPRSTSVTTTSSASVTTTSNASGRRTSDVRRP
B3: Seipin (Homo sapiens), Q96G97-4 (parent)
chain: MSTEKVDQKEEAGEKEVCGDQIKGPDKEEEPPAAASHGQGWRPGGRAARNARPEPGARHPALPAMVNDPPVPALLWAQEVGQVLAGRARRLLLQFGVLFCTILLLLWVSVFLYGSFYYSYMPTVSHLSPVHFYYRTDCDSSTTSLCSFPVANVSLTKGGRDRVLMYGQPYRVTLELELPESPVNQDLGMFLVTISCYTRGGRIISTSSRSVMLHYRSDLLQMLDTLVFSSLLLFGFAEQKQLLEVELYADYRENSYVPTTGAIIEIHSKRIQLYGAYLRIHAHFTGLRYLLYNFPMTCAFIGVASNFTFLSVIVLFSYMQWVWGGIWPRHRFSLQVNIRKRDNSRKEVQRRISAHQPGPEGQEESTPQSDVTEDGESPEDPSGTEGQLSEEEKPDQQPLSGEEELEPEASDGSGSWEDAALLTEANLPAPAPASASAPVLETLGSSEPAGGALRQRPTCSSS
partner: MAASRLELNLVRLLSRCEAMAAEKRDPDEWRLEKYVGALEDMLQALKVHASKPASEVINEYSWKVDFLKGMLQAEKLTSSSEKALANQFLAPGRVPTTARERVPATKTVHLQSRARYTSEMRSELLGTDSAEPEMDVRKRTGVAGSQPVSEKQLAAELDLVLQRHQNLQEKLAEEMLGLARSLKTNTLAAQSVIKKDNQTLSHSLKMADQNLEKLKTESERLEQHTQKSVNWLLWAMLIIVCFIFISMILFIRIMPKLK
B4: Peroxisomal bifunctional enzyme (Homo sapiens), Q08426 (parent)
chain: MAEYTRLHNALALIRLRNPPVNAISTTLLRDIKEGLQKAVIDHTIKAIVICGAEGKFSAGADIRGFSAPRTFGLTLGHVVDEIQRNEKPVVAAIQGMAFGGGLELALGCHYRIAHAEAQVGLPEVTLGLLPGARGTQLLPRLTGVPAALDLITSGRRILADEALKLGILDKVVNSDPVEEAIRFAQRVSDQPLESRRLCNKPIQSLPNMDSIFSEALLKMRRQHPGCLAQEACVRAVQAAVQYPYEVGIKKEEELFLYLLQSGQARALQYAFFAERKANKWSTPSGASWKTASARPVSSVGVVGLGTMGRGIVISFARARIPVIAVDSDKNQLATANKMITSVLEKEASKMQQSGHPWSGPKPRLTSSVKELGGVDLVIEAVFEEMSLKKQVFAELSAVCKPEAFLCTNTSALDVDEIASSTDRPHLVIGTHFFSPAHVMKLLEVIPSQYSSPTTIATVMNLSKKIKKIGVVVGNCFGFVGNRMLNPYYNQAYFLLEEGSKPEEVDQVLEEFGFKMGPFRVSDLAGLDVGWKSRKGQGLTGPTLLPGTPARKRGNRRYCPIPDVLCELGRFGQKTGKGWYQYDKPLGRIHKPDPWLSKFLSRYRKTHHIEPRTISQDEILERCLYSLINEAFRILGEGIAASPEHIDVVYLHGYGWPRHKGGPMFYASTVGLPTVLEKLQKYYRQNPDIPQLEPSDYLKKLASQGNPPLKEWQSLAGSPSSKL

Variants of: B1
Conditions: with serf2_human SERF2, P84101

Variant	effect of a mutation on the interaction
S9Y	disrupting interaction strength

Variants of: B2
Conditions: with KRT13, P13646

Variant	effect of a mutation on the interaction
R30C	with no effect
R161Q	with no effect
R213W	with no effect
H266R	with no effect
D217Y	with no effect
G86E	with no effect

Variants of: B3
Conditions: with use1_human USE1, Q9NZ43

Variant	effect of a mutation on the interaction
D20E	with no effect

Variants of: B4
Conditions: with tpp2_human TPP2, P29144

Variant	effect of a mutation on the interaction
L715S	with no effect

Variants of: B4
Conditions: with actb_human ACTB

Variant	effect of a mutation on the interaction
L715S	with no effect

Variants of: B4
Conditions: with actg_human ACTG1, P63261

Variant	effect of a mutation on the interaction
L715S	with no effect

Variants of: B4
Conditions: with tnip1_human TNIP1, Q15025
Chain of tnip1_human TNIP1, Q15025 (Q15025 whole entry): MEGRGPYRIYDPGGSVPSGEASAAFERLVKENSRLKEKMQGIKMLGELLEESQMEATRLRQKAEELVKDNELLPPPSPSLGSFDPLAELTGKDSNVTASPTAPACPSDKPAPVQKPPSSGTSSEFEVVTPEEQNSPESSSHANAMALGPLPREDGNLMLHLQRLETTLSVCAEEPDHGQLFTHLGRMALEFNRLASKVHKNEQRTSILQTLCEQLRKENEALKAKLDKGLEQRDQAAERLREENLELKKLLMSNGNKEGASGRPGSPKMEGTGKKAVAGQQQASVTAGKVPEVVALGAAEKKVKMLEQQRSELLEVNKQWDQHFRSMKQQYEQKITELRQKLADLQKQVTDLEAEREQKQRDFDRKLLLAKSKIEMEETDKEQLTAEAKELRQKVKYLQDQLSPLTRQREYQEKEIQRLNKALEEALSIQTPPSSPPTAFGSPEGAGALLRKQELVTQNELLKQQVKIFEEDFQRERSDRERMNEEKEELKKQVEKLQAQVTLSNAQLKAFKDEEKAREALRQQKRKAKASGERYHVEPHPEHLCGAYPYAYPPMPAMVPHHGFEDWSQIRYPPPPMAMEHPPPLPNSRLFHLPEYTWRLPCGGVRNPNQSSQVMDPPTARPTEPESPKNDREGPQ

Variant	effect of a mutation on the interaction
L715S	with no effect
